From US11549123B2, “Plant EPSP synthases and methods of use” (PIONEER HI-BRED INTERNATIONAL, INC., priority 2015, dated 2023) come the findings set out here.

Substrate in data set [1]: C=C(OP(=O)(O)O)C(=O)O
The data set is described as follows: EPSPS substrate saturation kinetics, WT-FS-E. The conditions noted are these: other: PEP varied; pH 7.0. The data set is classed as biochemical, Zea mays. As to the method:
(§1) EPSPS activity was determined by quantifying the phosphate generated from the EPSPS reaction. Release of inorganic phosphate was coupled to reaction with 2-amino-6-mercapto-7-methylpurine ribonucleoside, catalyzed by purine-nucleoside phosphorylase (M R Webb, Proc. Natl. Acad. Sci. 89:4884-4887, 1992). The absorbance change that occurs was monitored at 360 nm, where the extinction is 11,200 M^−1 cm^−1, with a Spectramax plate reader (Molecular Devices). To determine kinetic parameters, the varied substrate was present at seven concentrations (the eighth being the blank, containing no substrate) ranging from 4 to 400 uM and the unvaried substrate present at saturation. Six microliters of 50-fold concentrated stock solutions of the varied substrate were placed in the wells of the 96-well assay plate and reactions were started with the addition of a mixture containing 25 mM Hepes, pH 7, 100 mM KCl, 0.3 mM 2-amino-6-mercapto-7-methylpurine ribonucleosde, 1 uM (1 unit/ml) purine-nucleoside phosphorylase (Sigma N8264) and 200 uM of the non-varied substrate. Reactions were monitored with a Spectramax plate reader. […] KI was then calculated from the following form of the Michaelis-Menten equation for competitive inhibition: KI=KM[I]/(KM app−KM) KM approximates the dissociation constant of the enzyme-substrate complex while kcat is the rate of conversion of substrate to product when the substrate concentration is saturating. kcat/KM is a widely accepted parameter for catalytic efficiency when substrate concentration is low (˜KM). […] The parameter kcat/KM×KI is used to quantify both catalytic efficiency and insensitivity and thus the overall fitness of the enzyme. […]
(§2) The vector DNA of the library was transformed into the BL21(DE3) Tuner AroA knockout strain and the cells were plated onto M9 medium containing 50 mM glyphosate. A small aliquot of the transformed cells was plated on LB, by which it was determined that 1.1×10^8 colony forming units, or 20% of the theoretical library size, were plated and screened. […]

The subject of data set [2] is sorghum EPSPS. Description: EPSPS reaction rates at 200 uM PEP and S3P, and at 30 uM substrates with 1 mM glyphosate. It is filed as biochemical, Sorghum halepense. The conditions noted are these: Sor ha; for Reaction rate, 200 uM, no glyph: PEP and S3P both at 200 uM, no glyphosate; for Reaction rate, 30 uM, 1 mM glyph: substrates at 30 uM, glyphosate at 1 mM. Here is the method:
EPSPS activity was determined by quantifying the phosphate generated from the EPSPS reaction. Release of inorganic phosphate was coupled to reaction with 2-amino-6-mercapto-7-methylpurine ribonucleoside, catalyzed by purine-nucleoside phosphorylase (M R Webb, Proc. Natl. Acad. Sci. 89:4884-4887, 1992). The absorbance change that occurs was monitored at 360 nm, where the extinction is 11,200 M^−1 cm^−1, with a Spectramax plate reader (Molecular Devices). To determine kinetic parameters, the varied substrate was present at seven concentrations (the eighth being the blank, containing no substrate) ranging from 4 to 400 uM and the unvaried substrate present at saturation. Six microliters of 50-fold concentrated stock solutions of the varied substrate were placed in the wells of the 96-well assay plate and reactions were started with the addition of a mixture containing 25 mM Hepes, pH 7, 100 mM KCl, 0.3 mM 2-amino-6-mercapto-7-methylpurine ribonucleosde, 1 uM (1 unit/ml) purine-nucleoside phosphorylase (Sigma N8264) and 200 uM of the non-varied substrate. Reactions were monitored with a Spectramax plate reader. The Michaelis-Menten kinetics protocol of the Spectramax software was customized for the substrate concentrations used. The software returns values of KM and Vmax using the Lineweaver-Burke transformation of the Michaelis-Menten equation. To determine kcat, Vmax (uM/min) was divided by the enzyme concentration (uM). […] KI was then calculated from the following form of the Michaelis-Menten equation for competitive inhibition: KI=KM[I]/(KM app−KM) KM approximates the dissociation constant of the enzyme-substrate complex while kcat is the rate of conversion of substrate to product when the substrate concentration is saturating. kcat/KM is a widely accepted parameter for catalytic efficiency when substrate concentration is low (˜KM). […] The parameter kcat/KM×KI is used to quantify both catalytic efficiency and insensitivity and thus the overall fitness of the enzyme.
Likewise, the mutations present in maize EPSPS 123-C1 (See Table 8) were mapped onto the amino acid sequences of sorghum (SEQ ID NO:23) and the proteins were produced and purified as above.

Substrate in data set [3]: C=C(OP(=O)(O)O)C(=O)O
The data set is described as follows: EPSPS substrate saturation kinetics, WT-FS-D. The data set is classed as biochemical, Zea mays. The conditions noted are these: other: PEP varied; pH 7.0. As to the method:
as §1, §2

Substrate in data set [4]: C=C(OP(=O)(O)O)C(=O)O
The data set is described as follows: purified protein, by the assay type. The conditions noted are these: pH 7.0.

Substrate in data set [5]: C=C(OP(=O)(O)O)C(=O)O
Description: EPSPS substrate saturation kinetics, WT-FS-E2. The conditions noted are these: other: PEP varied; pH 7.0. The data set is classed as biochemical, Zea mays. As to the method: EPSPS activity was determined by quantifying the phosphate generated from the EPSPS reaction. Release of inorganic phosphate was coupled to reaction with 2-amino-6-mercapto-7-methylpurine ribonucleoside, catalyzed by purine-nucleoside phosphorylase (M R Webb, Proc. Natl. Acad. Sci. 89:4884-4887, 1992). The absorbance change that occurs was monitored at 360 nm, where the extinction is 11,200 M^−1 cm^−1, with a Spectramax plate reader (Molecular Devices). To determine kinetic parameters, the varied substrate was present at seven concentrations (the eighth being the blank, containing no substrate) ranging from 4 to 400 uM and the unvaried substrate present at saturation. Six microliters of 50-fold concentrated stock solutions of the varied substrate were placed in the wells of the 96-well assay plate and reactions were started with the addition of a mixture containing 25 mM Hepes, pH 7, 100 mM KCl, 0.3 mM 2-amino-6-mercapto-7-methylpurine ribonucleosde, 1 uM (1 unit/ml) purine-nucleoside phosphorylase (Sigma N8264) and 200 uM of the non-varied substrate. Reactions were monitored with a Spectramax plate reader. […] KI was then calculated from the following form of the Michaelis-Menten equation for competitive inhibition: KI=KM[I]/(KM app−KM) KM approximates the dissociation constant of the enzyme-substrate complex while kcat is the rate of conversion of substrate to product when the substrate concentration is saturating. kcat/KM is a widely accepted parameter for catalytic efficiency when substrate concentration is low (˜KM). […] The parameter kcat/KM×KI is used to quantify both catalytic efficiency and insensitivity and thus the overall fitness of the enzyme.
as §2

Substrate in data set [6]: C=C(OP(=O)(O)O)C(=O)O
Description: EPSPS substrate saturation kinetics, WT-FS-B. The conditions noted are these: other: PEP varied; pH 7.0. It is filed as biochemical, Zea mays. As to the method: as §1, §2

Data set [7] relates to Glycine max (93Y21) hairy root. The data set is described as follows: Hairy root growth from transformed soybean cotyledons with or without 25 uM glyphosate. The conditions noted are these: constructs containing the UBQ10 promoter. It is filed as cell-based.
[8] abbreviates: other: substrate saturation, Zm-P107L.
[9] abbreviates: other: substrate saturation, Zm native.
The mark [10] stands for this setting: other: substrate saturation, Zm-G102A.

Where a chain is given by its changes, count along the chain named. Numbers in names are those of the source.

B1: Zea mays EPSPS variant WT-FS-E (102A 302S 391G 438R) (Zea mays; E301S/E390G/G101A/V437R) (protein)
chain: MAGAEEIVLQPIKEISGTVKLPGSKSLSNRILLLAALSEGTTVVDNLLNSEDVHYMLGALRTLGLSVEADKAAKRAVVVGCGGKFPVEDAKEEVQLFLGNAATAMRPLTAAVTAAGGNATYVLDGVPRMRERPIGDLVVGLKQLGADVDCFLGTDCPPVRVNGIGGLPGGKVKLSGSISSQYLSALLMAAPLALGDVEIEIIDKLISIPYVEMTLRLMERFGVKAEHSDSWDRFYIKGGQKYKSPKNAYVEGDASSASYFLAGAAITGGTVTVEGCGTTSLQGDVKFAEVLEMMGAKVTWTSTSVTVTGPPREPFGRKHLKAIDVNMNKMPDVAMTLAVVALFADGPTAIRDVASWRVKETERMVAIRTELTKLGASVEEGPDYCIITPPGKLNVTAIDTYDDHRMAMAFSLAACAEVPVTIRDPGCTRKTFPDYFDRLSTFVKN
Regarding B1, in data set [1], the Km (usually the concentration of substrate that gives half-maximal velocity) turned out to be 165 µM, the kcat (commonly the maximal rate divided by the concentration of active sites) came to 6.63 s⁻¹ and the kcat/Km worked out at 2.41 min^−1uM^−1.

B2: Sor ha, native: native EPSPS from sorghum (Sorghum halepense) (protein)
chain: B1 chain with M1A, R61N, A72V, A102G, V161I, S302E, E313Q, G391E, R438V
modifications: Sorghum halapense
For the molecule B2, in data set [2], the “Reaction rate, 200 uM, no glyph” value worked out at 1376 and the “Reaction rate, 30 uM, 1 mM glyph” value is reported as −2.2.

B3: Zea mays EPSPS variant WT-FS-D (101S 107L 302S 338S) (Zea mays; A100S/A337S/E301S/P106L) (protein)
chain: B1 chain with A101S, A102G, P107L, A338S, G391E, R438V
B3: in data set [3], the Km was 20.5 µM, the kcat stood at 30.9 s⁻¹ and the kcat/Km was 92.3 min^−1uM^−1.

B4: Zea mays EPSPS variant P107L (Zea mays; P106L) (protein)
chain: B1 chain with A102G, P107L, S302E, G391E, R438V
Take B4: in data set [4] (other: PEP varied), the Km worked out at 67.1 µM. Also, in data set [4] (setting [8]), the Km is 59.7 µM and the kcat stood at 22.93 s⁻¹.

B5: Zea mays EPSPS variant WT-FS-E2 (102A 302S 391G 438R I208L) (Zea mays; E301S/E390G/G101A/I207L/V437R) (protein)
chain: B1 chain with I208L
Take B5: in data set [5], the Km came to 87.7 µM, the kcat amounted to 9.93 s⁻¹ and the kcat/Km is recorded as 6.80 min^−1uM^−1.

B6: Zea mays EPSPS variant WT-FS-B (103I 107S 278G 338S) (Zea mays; A337S/P106S/T102I/T277G) (protein)
chain: B1 chain with A102G, T103I, P107S, T278G, S302E, A338S, G391E, R438V
As for B6, in data set [6], the Km stood at 27.7 µM, the kcat is 1.62 s⁻¹ and the kcat/Km was 3.57 min^−1uM^−1.

B7: Zea mays EPSPS, native, SEQ ID NO:2 (Zea mays) (protein)
chain: B1 chain with A102G, S302E, G391E, R438V
Turning to B7, in data set [4] (setting [9]), the Km is 11.0 µM and the kcat is 17.27 s⁻¹.

B8: Zea mays EPSPS variant G102A (Zea mays; G101A) (protein)
chain: B1 chain with S302E, G391E, R438V
As to B8, in data set [4] (other: PEP varied), the Km came to 310 µM. Moreover, in data set [4] (setting [10]), the Km is 407 µM and the kcat was found to be 14.3 s⁻¹.

B9: Sor ha C1 mutations: mutated version of the EPSPS sequence from sorghum that contains the 123-C1 mutations (protein)
chain: ARGWEEIVLQPIKEISGTVKLPGSKSLSNRILLLAALSEGTTVVDNLLNSEDVHYMLGALNTLGLSVEADKVAKRAVVVGCGGRFPVEDAKEEVQLFCGNAATAMRPLTAAVTAAGGNATYVLDGVPRMRERPIGDLVVGLKQLGADVDCFLGTDCPPVRINGIGGLPGGKVKLSGSISSQYLSALLMAAPLALGDVEIEIIDKLISLPYVEMTLRLMERFGVKAEHSDSWDRFYIKGGQKYESPKNAYVEGDASSASYFLAGAAITGGTVTVEGCGTTSLQGDVKFAEVLEMMGAKVTWTETSVTVTGPPRQPFGRKHLKAIDVNMNKMPDVAMTLAVVALFADGPTAIRDVASWRVKETERMVAIRTELTKLGASVEEGPDYCIITPPPKLNVTAIDTYGDHRMAMAFSLAACAEVPVTIRDPGCTRKTFPDYFDVLSTFVKN
modifications: Sorghum halapense H6T5X2 with C1 mutations
In the case of B9, in data set [2], the “Reaction rate, 200 uM, no glyph” value is given as 356 and the “Reaction rate, 30 uM, 1 mM glyph” value is recorded as 60.0.

B10: 868-H6: maize EPSPS with A2R, A4W, A72Q, K84R, L98C, G102A, I208L, T279A, E302S, T361S, E391G, D402G, A416G, V438R, T441Q (protein)
chain: MRGWEEIVLQPIKEISGTVKLPGSKSLSNRILLLAALSEGTTVVDNLLNSEDVHYMLGALRTLGLSVEADKQAKRAVVVGCGGRFPVEDAKEEVQLFCGNAATAMRPLTAAVTAAGGNATYVLDGVPRMRERPIGDLVVGLKQLGADVDCFLGTDCPPVRVNGIGGLPGGKVKLSGSISSQYLSALLMAAPLALGDVEIEIIDKLISLPYVEMTLRLMERFGVKAEHSDSWDRFYIKGGQKYKSPKNAYVEGDASSASYFLAGAAITGGTVTVEGCGTASLQGDVKFAEVLEMMGAKVTWTSTSVTVTGPPREPFGRKHLKAIDVNMNKMPDVAMTLAVVALFADGPTAIRDVASWRVKESERMVAIRTELTKLGASVEEGPDYCIITPPGKLNVTAIDTYGDHRMAMAFSLAACGEVPVTIRDPGCTRKTFPDYFDRLSQFVKN
modifications: maize clone 868-H6
notes: maize EPSPS with A2R, A4W, A72Q, K84R, L98C, G102A, I208L, T279A, E302S, T361S, E391G, D402G, A416G, V438R, T441Q
As to B10, the “hairy root growth in the presence of 25 uM glyphosate” value in data set [7] is on record as “generated hairy roots”.

B11: 771-C2: maize EPSPS with A4W, H54M, L98C, G102A, K173R, I208L, K243E, E302S, T361S, E391P, D402G, A416G, V438R, S440R, T441Q, F442V (protein)
chain: B10 chain with R2A, H54M, Q72A, R84K, K173R, K243E, A279T, G391P, S440R, F442V
modifications: maize clone 771-C2
notes: maize EPSPS with A4W, H54M, L98C, G102A, K173R, I208L, K243E, E302S, T361S, E391P, D402G, A416G, V438R, S440R, T441Q, F442V
Take B11: the “hairy root growth in the presence of 25 uM glyphosate” value in data set [7] was “generated hairy roots”.
